Reference: US20210379110A1 (LENTIGEN TECHNOLOGY, published 2021)

T1: CD22-Fc peptide (R&D systems) (UniProt P20273 20-687)
T1 construct: Bought reagent (R&D systems); not shown: Fc part of the bought reagent
T1 sequence (looked up): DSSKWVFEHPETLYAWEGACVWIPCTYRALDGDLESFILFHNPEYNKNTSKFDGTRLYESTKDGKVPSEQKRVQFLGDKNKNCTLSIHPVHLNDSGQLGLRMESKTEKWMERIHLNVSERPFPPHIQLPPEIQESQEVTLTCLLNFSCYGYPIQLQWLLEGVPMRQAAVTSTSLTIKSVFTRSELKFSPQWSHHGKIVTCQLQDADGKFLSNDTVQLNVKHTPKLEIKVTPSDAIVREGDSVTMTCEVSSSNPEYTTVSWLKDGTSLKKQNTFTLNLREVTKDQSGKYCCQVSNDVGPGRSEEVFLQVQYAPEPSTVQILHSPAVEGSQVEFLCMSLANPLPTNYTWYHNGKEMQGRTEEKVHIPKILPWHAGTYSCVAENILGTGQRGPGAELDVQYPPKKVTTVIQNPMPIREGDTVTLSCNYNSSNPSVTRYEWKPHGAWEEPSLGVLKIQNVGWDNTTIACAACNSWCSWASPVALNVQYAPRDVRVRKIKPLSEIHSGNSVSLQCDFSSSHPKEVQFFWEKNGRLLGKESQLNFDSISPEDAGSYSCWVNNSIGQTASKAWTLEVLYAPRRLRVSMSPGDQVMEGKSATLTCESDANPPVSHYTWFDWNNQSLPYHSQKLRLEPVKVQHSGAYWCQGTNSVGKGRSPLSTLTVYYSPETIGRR

T2: TSLPR-Fc peptide (R&D systems) (UniProt Q9HC73 25-231)
T2 construct: Bought reagent (R&D systems); also called TSLPR-Fc reagent; not shown: Fc part of the bought reagent
T2 sequence (looked up): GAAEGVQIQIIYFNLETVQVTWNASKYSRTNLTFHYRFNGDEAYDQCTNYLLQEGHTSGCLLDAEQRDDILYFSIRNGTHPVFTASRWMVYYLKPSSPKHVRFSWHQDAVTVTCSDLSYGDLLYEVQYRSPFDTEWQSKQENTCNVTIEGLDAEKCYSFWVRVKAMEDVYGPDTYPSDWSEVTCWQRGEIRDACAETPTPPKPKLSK

T3: recombinant human CD22 (labeled) (human, UniProt P20273 20-687, limits assumed)
T3 construct: Labeled antigen titrated on yeast; It may be CD22-Fc; also called labeled CD22
T3 sequence (looked up): T1 sequence (looked up)

B1: D0112 (EF-1a-CD22 (m971)-TSLPR CD8 BBz) (other)
chain: QVQLQQSGPGLVKPSQTLSLTCAISGDSVSSNSAAWNWIRQSPSRGLEWLGRTYYRSKWYNDYAVSVKSRITINPDTSKNQFSLQLNSVTPEDTAVYYCAREVTGDLEDAFDIWGQGTMVTVSSGGGGSGGGGSGGGGSDIQMTQSPSSLSASVGDRVTITCRASQTIWSYLNWYQQRPGKAPNLLIYAASSLQSGVPSRFSGRGSGTDFTLTISSLQAEDFATYYCQQSYSIPQTFGQGTKLEIKGGGGSGGGGSGGGGSGGGGSGGGGSQVTLKESGPGILKPSQTLSLTCSFSGFSLSTSGMGVGWIRQPSGKGLEWLAHIWWDDDKYYNPSLKSQLTISKDTSRNQVFLKITSVDTADTATYYCSRRPRGTMDAMDYWGQGTSVTVSSGGGGSGGGGSGGGGSDIVMTQAASSLSASLGDRVTISCRASQDISKYLNWYQQKPDGTVKLLIYYTSRLHSGVPSRFSGSGSGTDYSLTIRNLEQEDIATYFCQQVYTLPWTFGGGTKLEIKAAATTTPAPRPPTPAPTIASQPLSLRPEACRPAAGGAVHTRGLDFACDIYIWAPLAGTCGVLLLSLVITLYCKRGRKKLLYIFKQPFMRPVQTTQEEDGCSCRFPEEEEGGCELRVKFSRSADAPAYQQGQNQLYNELNLGRREEYDVLDKRRGRDPEMGGKPRRKNPQEGLYNELQKDKMAEAYSEIGMKGERRRGKGHDGLYQGLSTATKDTYDALHMQALPPR
notes: Tandem chimeric antigen receptor on human primary T cells: leader, CD22 scFv m971 (membrane-distal), (GGGGS)5, TSLPR scFv 3G11, CD8 hinge/TM, 4-1BB, CD3 zeta; also called CAR 22m971-TSLPR BBz
B2: human anti-CD22 ScFv binder 16P17 (scFv, V domains shown)
VH: QVQLQQSGPGLVKHSQTLSLTCAISGDSVSSNSAAWNWIRQSPSRGLEWLGRTYYRSKWYNDYAVSVKSRITINPDTSKNQFSLQLNSVTPEDTAVYYCAQEVEPHDAFDIWGQGTMVTVSS
VL: DIQMTQSPSSVYASVGDKVTITCRASQDVSGWLAWYQQKPGLAPQLLISGASTLQGEVPSRFSGSGSGTDFTLTISSLQPEDFATYYCQQAKYFPYTFGQGTKLEIK
notes: In the CARs the order is VH-(GGGGS)3-VL; also called CD22 scFv 16P17
B3: D0111 (EF-1a-TSLPR-CD22 (m971) CD8 BBz) (other)
chain: QVTLKESGPGILKPSQTLSLTCSFSGFSLSTSGMGVGWIRQPSGKGLEWLAHIWWDDDKYYNPSLKSQLTISKDTSRNQVFLKITSVDTADTATYYCSRRPRGTMDAMDYWGQGTSVTVSSGGGGSGGGGSGGGGSDIVMTQAASSLSASLGDRVTISCRASQDISKYLNWYQQKPDGTVKLLIYYTSRLHSGVPSRFSGSGSGTDYSLTIRNLEQEDIATYFCQQVYTLPWTFGGGTKLEIKGGGGSGGGGSGGGGSGGGGSGGGGSQVQLQQSGPGLVKPSQTLSLTCAISGDSVSSNSAAWNWIRQSPSRGLEWLGRTYYRSKWYNDYAVSVKSRITINPDTSKNQFSLQLNSVTPEDTAVYYCAREVTGDLEDAFDIWGQGTMVTVSSGGGGSGGGGSGGGGSDIQMTQSPSSLSASVGDRVTITCRASQTIWSYLNWYQQRPGKAPNLLIYAASSLQSGVPSRFSGRGSGTDFTLTISSLQAEDFATYYCQQSYSIPQTFGQGTKLEIKAAATTTPAPRPPTPAPTIASQPLSLRPEACRPAAGGAVHTRGLDFACDIYIWAPLAGTCGVLLLSLVITLYCKRGRKKLLYIFKQPFMRPVQTTQEEDGCSCRFPEEEEGGCELRVKFSRSADAPAYQQGQNQLYNELNLGRREEYDVLDKRRGRDPEMGGKPRRKNPQEGLYNELQKDKMAEAYSEIGMKGERRRGKGHDGLYQGLSTATKDTYDALHMQALPPR
notes: Tandem chimeric antigen receptor on human primary T cells: leader, TSLPR scFv 3G11 (membrane-distal), (GGGGS)5, CD22 scFv m971, CD8 hinge/TM, 4-1BB, CD3 zeta; also called CAR TSLPR-22m971 BBz

Columns and labels:
[1] = target: T1, CD22-Fc peptide (R&D systems); assay: flow cytometry, CAR T cells stained with CD22-Fc then anti-Fc AF647
Description: (§1) For CAR surface expression, TSLPR Fc, CD19Fc and CD22Fc peptide (R&D systems, Minneapolis, Minn.) were used followed anti Fc-AF647 (Jackson ImmunoResearch, West Grove, Pa.). T cell subtypes was further identified with anti-CD4 antibody conjugated to VioBlue fluorophore (Miltenyi Biotec Bergisch Gladbach, Germany). Dead cells in all studies were excluded by 7AAD staining (BD Biosciences, San Jose, Calif.). Flow data were analyzed with MACSQuantify software.
To develop the tandem CD22 and TSLPR targeting CARs, CD22-directed scFv 16P17 was used in either membrane-proximal or membrane-distal orientation (construct D0103 and D0104, respectively). For TSLPR-targeting, scFv 3G11 was used. Surface expression of the tandem TSLPR×CD22 CAR incorporating the human ScFv 16P17 together with the TSLPR scFv 3G11, when the TSLPR scFv is positioned in the membrane-distal orientation (D0103), or in the membrane-proximal orientation (D0104) is shown in FIG. 5. Specific detection of each scFv domain within the CAR structure was facilitated by CAR T cell staining with TSLPR-Fc peptide, or CD22-Fc peptide, followed by a secondary staining with anti-Fc AF647-labeled reagent, and detected in the APC channel by flow cytometry. In CAR construct D0103, in which CD22 scFv was membrane-proximal and the TSLPR scFv was membrane-distal, the TSLPR scFv was detected at 26% of the transduced cells, and CD22 scFv was detected at 11%. In CAR construct D0104 with the opposite binder orientation (i.e. the CD22 scFv was membrane-distal, and the TSLPR scFv was membrane-proximal), the detection levels were 75% and 39% for scFv TSLPR and CD22, respectively (FIG. 5).
The surface expression of the tandem TSLPR×CD22 CAR incorporating the human ScFv m971 in membrane-proximal orientation (D0111), and in the membrane-distal orientation (D0112) is shown in FIG. 8. Specific detection of each scFv domain within the CAR structure was facilitated by CAR T cell staining with TSLPR-Fc peptide, or CD22-Fc peptide, followed by a secondary staining with anti-Fc AF647-labeled reagent and detection in the APC channel by flow cytometry. In CAR construct D0111, in which CD22 scFv was membrane-proximal and the TSLPR scFv was membrane-distal, the TSLPR scFv was detected at 34% of the transduced cells, and CD22 scFv was detected at 11%.

[2] = target: T2, TSLPR-Fc peptide (R&D systems); assay: flow cytometry, CAR T cells stained with TSLPR-Fc then anti-Fc AF647
Description: as §1, with “Flow cytometric analysis was performed to detect the CAR molecule surface expression. Half million of harvested primary T cells were washed and stained with cold AutoMACS buffer supplemented with 0.5% bovine serum albumin (Miltenyi Biotec, Bergisch Gladbach, Germany), and resuspended in 200 ul Running Buffer before acquired by MACSQuant®10 Analyzer (Miltenyi Biotec Bergisch Gladbach, Germany). For” for “For”
Specific detection of each scFv domain within the CAR structure was facilitated by CAR T cell staining with TSLPR-Fc peptide, or CD19-Fc peptide, followed by a secondary staining with anti-Fc AF647-labeled reagent, and fluorescence was detected in the APC channel. In CAR construct D0101, in which CD19 scFv was membrane-proximal and the TSLPR scFv was membrane-distal, the TSLPR scFv was detected at 44% of the transduced cells, and CD19 scFv was detected at 31%. In CAR construct D0102 with the reverse binder orientation (i.e. the TSLPR scFv membrane-proximal, and CD19 scFv membrane-distal), the detection levels were 85% and 75% for scFv TSLPR and CD19, respectively (FIG. 2).

[3] = target: T3, recombinant human CD22 (labeled); assay: flow cytometry of yeast-displayed scFv with decreasing amounts of labeled CD22
Description: After electroporation, the resulting mutant library was then grown overnight at 30° C. for 16 hours in SDCAA medium and then switched into SGCAA medium at 30° C. for another 16 hours. The mutant library was then sorted through MACS (immunomagnetic column, Miltenyi Biotec) with CD22-Fc as the capture antigen to downsize the library and to increase the population of mutants that could bind to CD22-Fc. The strongest binders were then selected by double staining the pools with Anti-c-Myc-Alexa 488 and […] and selecting for the binders that had the highest binding affinities as well as c-Myc expression levels. This process was then repeated two more times, until flow cytometry of yeast particles with fluorescently tagged antigen yielded average binding affinities of the mutant pools that were increased over the starting construct. Binding affinities were estimated by flow cytometry of yeast pools using decreasing amounts of labeled CD22.

Binder	percent of transduced T cells stained by antigen-Fc [1]	percent of transduced T cells stained by antigen-Fc [2]	EC50 [3]
B1	39%	73%	
B2			< 0.01 µg/mL
B3	11%	34%	
